Experimental findings from paper PMC7085636, “A Graphene-PEDOT:PSS Modified Paper-Based Aptasensor for Electrochemical Impedance Spectroscopy Detection of Tumor Marker” are described below.

In this data set the target is carcinoembryonic antigen (CEA) (UniProt P06731 35-685). Nature of the data set: electrochemical impedance spectroscopy (aptasensor); PBS; linear 0.77-14 ng/mL, LOD 0.45 ng/mL, saturated above 21 ng/mL; PBS pH 7.4 or undiluted human serum; surface blocked with 1% BSA; K3[Fe(CN)6] and KCl listed as reagents; binding temperature not stated. The following applies: protein: commercial.
Sequence of carcinoembryonic antigen (CEA) (P06731 35-685): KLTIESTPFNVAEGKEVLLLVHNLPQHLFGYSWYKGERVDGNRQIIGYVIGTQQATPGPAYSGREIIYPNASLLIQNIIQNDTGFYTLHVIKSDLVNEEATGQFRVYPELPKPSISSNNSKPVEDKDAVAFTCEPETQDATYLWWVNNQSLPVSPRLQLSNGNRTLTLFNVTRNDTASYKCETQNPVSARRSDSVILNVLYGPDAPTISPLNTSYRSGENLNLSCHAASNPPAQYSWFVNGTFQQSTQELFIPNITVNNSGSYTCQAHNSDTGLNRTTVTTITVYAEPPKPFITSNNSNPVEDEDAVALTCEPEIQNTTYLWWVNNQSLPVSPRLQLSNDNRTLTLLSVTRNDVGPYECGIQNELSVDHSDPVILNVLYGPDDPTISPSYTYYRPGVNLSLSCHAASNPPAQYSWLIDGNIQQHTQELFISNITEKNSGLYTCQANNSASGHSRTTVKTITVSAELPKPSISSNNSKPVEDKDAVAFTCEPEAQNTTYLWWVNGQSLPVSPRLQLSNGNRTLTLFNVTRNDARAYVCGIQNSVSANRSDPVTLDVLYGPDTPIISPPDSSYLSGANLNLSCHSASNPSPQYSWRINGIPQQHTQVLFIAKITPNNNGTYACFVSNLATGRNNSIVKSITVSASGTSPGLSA

GACGATAGCGGTGACGGCACAGACGTCCCGCATCCTCCG (ssDNA, 5'-NH2) [CEA DNA aptamer]: the binding result is listed as “binds”.
